Assay results reported in patent US20190247381A1.
Values belong to the molecule of their own block, whether it stands above or below them.

Molecular target: FLAG-HA-Atoh1 (Mus musculus (Mouse)) (UniProt P48985)
Assay: IP-MS: immunoprecipitation of Atoh1 and its associated binding partners, excised gel band, mass spectrometry

- Total peptide: 3 peptides
Molecule: PRPS1 (from UniProt P60891)

- Total peptide: 1 peptides
Molecule: PDE4B (from UniProt Q07343)

Molecule: TUBA1A (from UniProt Q71U36)
- Total peptide: 112 peptides

- Total peptide: 52 peptides
Molecule: PSMC5 (from UniProt P62195)

- Total peptide: 62 peptides
Molecule: ENO1 (from UniProt P06733)

- Total peptide: 1 peptides
Molecule: AAMP (from UniProt Q13685)

- Total peptide: 6 peptides
Molecule: CK1ε (CSNK1E), endogenous in 293T cells (from UniProt P49674) (enzyme)

- Total peptide: 159 peptides
Molecule: TUBB2A (from UniProt Q13885)

- Total peptide: 1 peptides
Molecule: PRDX4 (from UniProt Q13162)

- Total peptide: 1 peptides
Molecule: TUBA4A (from UniProt P68366)

- Total peptide: 7 peptides
Molecule: CK1δ (CSNK1D), endogenous in 293T cells (from UniProt P48730) (enzyme)

- Total peptide: 7 peptides
Molecule: TUBA1C (from UniProt Q9BQE3)

- Total peptide: 65 peptides
Molecule: RBMX (from UniProt P38159)

- Total peptide: 103 peptides
Molecule: EEF1A1 (from UniProt P68104)

- Total peptide: 50 peptides
Molecule: PSMC2 (from UniProt P35998)

- Total peptide: 5 peptides
Molecule: BCKDHA (from UniProt P12694)

- Total peptide: 2 peptides
Molecule: TUBB2B (from UniProt Q9BVA1)

- Total peptide: 9 peptides
B1: SERPINH1 (protein)
chain: AEVKKPAAAAAPGTAEKLSPKAATLAERSAGLAFSLYQAMAKDQAVENILVSPVVVASSLGLVSLGGKATTASQAKAVLSAEQLRDEEVHAGLGELLRSLSNSTARNVTWKLGSRLYGPSSVSFADDFVRSSKQHYNCEHSKINFRDKRSALQSINEWAAQTTDGKLPEVTKDVERTDGALLVNAMFFKPHWDEKFHHKMVDNRGFMVTRSYTVGVMMMHRTGLYNYYDDEKEKLQIVEMPLAHKLSSLIILMPHHVEPLERLEKLLTKEQLKIWMGKMQKKAVAISLPKGVVEVTHDLQKHLAGLGLTEAIDKNKADLSRMSGKKDLYLASVFHATAFELDTDGNPFDQDIYGREELRSPKLFYADHPFIFLVRDTQSGSLLFIGRLVRPKGDKMRDEL

- Total peptide: 65 peptides
B2: SSB (protein)
chain: MAENGDNEKMAALEAKICHQIEYYFGDFNLPRDKFLKEQIKLDEGWVPLEIMIKFNRLNRLTTDFNVIVEALSKSKAELMEISEDKTKIRRSPSKPLPEVTDEYKNDVKNRSVYIKGFPTDATLDDIKEWLEDKGQVLNIQMRRTLHKAFKGSIFVVFDSIESAKKFVETPGQKYKETDLLILFKDDYFAKKNEERKQNKVEAKLRAKQEQEAKQKLEEDAEMKSLEEKIGCLLKFSGDLDDQTCREDLHILFSNHGEIKWIDFVRGAKEGIILFKEKAKEALGKAKDANNGNLQLRNKEVTWEVLEGEVEKEALKKIIEDQQESLNKWKSKGRRFKGKGKGNKAAQPGSGKGKVQFQGKKTKFASDDEHDEHDENGATGPVKRAREETDKEEPASKQQKTENGAGDQ

- Total peptide: 11 peptides
B3: YARS2 (protein)
chain: TLNLSVLLPLGLRKAHSGAQGLLAAQKARGLFKDFFPETGTKIELPELFDRGTASFPQTIYCGFDPTADSLHVGHLLALLGLFHLQRAGHNVIALVGGATARLGDPSGRTKEREALETERVRANARALRLGLEALAANHQQLFTDGRSWGSFTVLDNSAWYQKQHLVDFLAAVGGHFRMGTLLSRQSVQLRLKSPEGMSLAEFFYQVLQAYDFYYLFQRYGCRVQLGGSDQLGNIMSGYEFINKLTGEDVFGITVPLITSTTGAKLGKSAGNAVWLNRDKTSPFELYQFFVRQPDDSVERYLKLFTFLPLPEIDHIMQLHVKEPERRGPQKRLAAEVTKLVHGREGLDSAKRCTQALYHSSIDALEVMSDQELKELFKEAPFSEFFLDPGTSVLDTCRKANAIPDGPRGYRMITEGGVSINHQQVTNPESVLIVGQHILKNGLSLLKIGKRNFYIIKWLQL

- Total peptide: 5 peptides
B4: ACOX1 (protein)
chain: MNPDLRRERDSASFNPELLTHILDGSPEKTRRRREIENMILNDPDFQHEDLNFLTRSQRYEVAVRKSAIMVKKMREFGIADPDEIMWFKKLHLVNFVEPVGLNYSMFIPTLLNQGTTAQKEKWLLSSKGLQIIGTYAQTEMGHGTHLRGLETTATYDPETQEFILNSPTVTSIKWWPGGLGKTSNHAIVLAQLITKGKCYGLHAFIVPIREIGTHKPLPGITVGDIGPKFGYDEIDNGYLKMDNHRIPRENMLMKYAQVKPDGTYVKPLSNKLTYGTMVFVRSFLVGEAARALSKACTIAIRYSAVRHQSEIKPGEPEPQILDFQTQQYKLFPLLATAYAFQFVGAYMKETYHRINEGIGQGDLSELPELHALTAGLKAFTSWTANTGIEACRMACGGHGYSHCSGLPNIYVNFTPSCTFEGENTVMMLQTARFLMKSYDQVHSGKLVCGMVSYLNDLPSQRIQPQQVAVWPTMVDINSPESLTEAYKLRAARLVEIAAKNLQKEVIHRKSKEVAWNLTSVDLVRASEAHCHYVVVKLFSEKLLKIQDKAIQAVLRSLCLLYSLYGISQNAGDFLQGSIMTEPQITQVNQRVKELLTLIRSDAVALVDAFDFQDVTLGSVLGRYDGNVYENLFEWAKNSPLNKAEVHESYKHLKSLQSKL
